Tests used:
EGFR [1] = target: EGFR (UniProt P00533); experiment: flow cytometry on MDAMB468 cells, Alexa Fluor 488 anti-human IgG Fab as secondary, on ice
CD33 = CD33 (UniProt P20138); experiment: flow cytometry on CD33-expressing MV411 cells, Alexa Fluor 488 anti-human IgG Fab as secondary, on ice
EGFR [2] = target: EGFR (UniProt P00533); experiment: cell-based or functional assay

EGFR-binding antibody Cetuximab
EC50 (read off the curve) (EGFR [1]): 0.6 nM

CD33-binding antibody Gemtuzumab (IgG4-PG-SPLE)
EC50 (read off the curve) (CD33): 0.3 nM

C225-L328C-GNE987 (antibody)
IC50 cell viability, MDAMB468 cells, three independent experiments (EGFR [2]): 800 pM | remaining nuclear BRD4 (immunofluorescence) in EGFR-expressing MDAMB468 cells at 4 nM (EGFR [2]): 44.2%

From US20250312468A1, “ANTI-PROTAC ANTIBODIES AND COMPLEXES” (Merck Patent GmbH, priority 2021, published 2025)
